Measurements: paper PMC3956856, “Interaction of Kinase-Interaction-Motif Protein Tyrosine Phosphatases with the Mitogen-Activated Protein Kinase ERK2” (PLoS ONE, 2014)
Entries after “also recorded” stand apart in the source; their conditions may differ. Where two headings read alike, the source gives them in different places.

Tests used:
HePTP (Homo sapiens) = HePTP (Homo sapiens) (UniProt P35236); conditions: cited from earlier work
PTPSL (Homo sapiens) = PTPSL (Homo sapiens) (UniProt Q15256); conditions: cited from earlier work
[1] = biological target: DUSP16 MKBD MKBD (Homo sapiens) (UniProt Q9BY84); experiment: ITC; conditions: cited from earlier work
ERK2 [2] = biological target: T1, ERK2 (Rattus norvegicus, UniProt P63086); experiment: Isothermal titration calorimetry with ERK2; assay type: binding
T1 construct: gene Mapk1; made in house
Experimental: The PTPSLKIM peptide (residues 331–348), STEPKIM (residues 213–229) and STEPKIMKIS (residues 213–256) were synthesized, HPLC purified and verified by mass spectrometry (MS) (>98% purity; Biosynthesis, Inc.). Expression and purification of ERK2 and PTPSLKIMKIS (residues 332–373) was carried out as previously described, [15]. PTPSL (residues 332–655, human), STEP (residues 213–539, mouse) and PSChimera (PTPSL residues 332–373 with STEP residues 257–539; gene synthesized by DNA 2.0) were expressed and purified using the protocol previously described in detail for STEPCAT (residues 244–539). The DUSP16 MAPK binding domain (residues 5–138, human) was expressed and purified as previously described. All purified proteins were stored at −80 °C until use at which point they were thawed and exchanged into the appropriate buffer using size exclusion chromatography (SEC; Superdex 75 26/60; GE Healthcare). The final protein buffer was dependent on the experiment performed. For ITC experiments, the final SEC purification was performed in ITC buffer (10 mM Tris pH 7.5, 150 mM NaCl, 0.1 mM EDTA, 0.5 mM TCEP); for SAXS experiments, the final SEC purification was performed in SAXS buffer (50 mM HEPES pH 6.8, 150 mM NaCl, 5 mM dithiothreitol). PTPSLKIM, STEPKIM and STEPKIMKIS peptides were solubilized in ITC buffer prior to ITC measurements.
ITC experiments were performed at 25 °C using a VP-ITC microcalorimeter (Microcal Inc.). Titrant (10 μL per injection) was injected into the sample cell over a period of 20 seconds with a 250 second interval between titrations to allow for complete equilibration and baseline recovery. 28 injections were delivered during each experiment and the solution in the sample cell was stirred at 307 rpm to ensure rapid mixing. To determine the thermodynamic parameters (ΔH, ΔS, ΔG) and binding constants (K) of the ERK2:PTPSLKIM, ERK2:PTPSL, ERK2:STEP and ERK2:PSChimera interactions, PTPSLKIM, PTPSL, STEP and PSChimera were titrated into ERK2. To determine the same parameters for the ERK2:STEPKIM, ERK2:PTPSLKIMKIS and ERK2:STEPKIMKIS interaction, ERK2 was titrated into the peptides. Titrants were chosen based on the amount of purified protein/peptide available for the experiment. For all titrations the concentrations were slightly varied to ensure independence of the Kd from the protein/peptide concentrations. Data were analyzed with a one-site binding model assuming a binding stoichiometry of 1∶1 using Origin 7.0 software. A nonlinear least-squares algorithm and the titrant and sample cell concentrations were used to fit the heat flow per injection to an equilibrium binding equation, providing values of the stoichiometry (n), change in enthalpy (ΔH) and binding constant (K). All data were repeated in triplicate.

ERK2 [3] = biological target: T1, ERK2; experiment: SAXS of resting-state complexes with ERK2; for Dmax shorter than that of the ERK2:HePTP complex: values in Å; for Dmax, P(r) function: values in Å; for Rg smaller than that of the ERK2:HePTP resting-state complex: values in Å
Experimental: To form the ERK2:STEP resting-state complex, purified, unphosphorylated ERK2 was incubated in a 1∶1 molar ratio with purified STEP213-539 at room temperature for 30 minutes and purified using SEC (Superdex 75 26/60 [GE Healthcare]; SAXS buffer). Data for the ERK2:STEP complex were recorded on samples at 0.7, 1.2 and 1.7 mg/ml. All samples were prepared within 48 hours of data acquisition and stored on ice at 4 °C. All samples were filtered ([…], Whatman) immediately prior to data collection. All data was recorded at Beamline X9A at the National Synchrotron Light Source (NSLS) using a Dectris Pilatus 300k (3.4 m distance from the sample for SAXS) and a Photonic Science CCD (0.47 m from the sample for WAXS) detector. 20 μl of sample was continuously flowed through a 1 mm diameter capillary and exposed to an X-ray beam for 30 seconds. Normalization for beam intensity, buffer subtraction and merging of the data from both detectors were carried out using PRIMUS [20]. A Guinier approximation, I(q) = I(0)exp(-q^2Rg ^2/3), where a plot of ln[I(q)] and q^2 is linear for q<1.3/Rg (q is the scattering vector q = 4πsin(θ)/λ; λ, wavelength of X-rays and 2θ is the angle between the incident beam and the scattering X-rays) was performed on at least four independent scattering trials and averaged to determine the radius of gyration (Rg). The linearity of the Guinier region and the intensity at zero scattering angle, I(0), were used to validate that all samples were monodisperse in solution. I(0)/c, where c is concentration, was consistent for all measurements. GNOM [21] was used to determine the pair-distribution function, P(r), for the ERK2:STEP resting-state complex using data collected on the 1.7 mg/ml sample. Twenty-four envelopes were generated using GASBOR [22] and were aligned and averaged using the DAMAVER program suite.

p38α [4] = conditions: values previously published, ref [14], [15], [17], [18], cited from earlier work
Source text: We used ITC measurements to determine the binding affinity of STEP and PTPSL for unphosphorylated ERK2 ( Table 1; Figure S1). […] This complex has a ∼3-times lower Kd (tighter binding) than the next tightest complex, ERK2:PTPSL, and a nearly 70-fold greater affinity than the weakest complex, p38α:HePTP [15]. Like STEP, PTPSL binds ERK2 more tightly (∼3.5-fold) than p38α. We also tested peptides that include the kinase specificity s ... || We also generated a chimeric protein in which we fused the PTPSLKIMKIS to STEPCAT (PSchimera; Figure 1A ). […] Thus, they only adopt a single conformation when they bind their respective MAPKs. This is different from the MAPK-binding domains (MKBD) of MAPK phosphatases (MKP; dual specificity phosphatases; DUSPs), [26]. In MKPs, the KIM sequence is part of a stable, folded domain and thus adopts a single, ordered conformation in both the unbound and MAPK-bound states, [28]. […] Our ... || (+ 1 further places)

ERK2 [5] = biological target: T1, ERK2; experiment: SAXS of resting-state complexes with ERK2; conditions: ERK2:STEP; 24 GASBOR envelopes, DAMAVER; for Dmax shorter than that of the ERK2:HePTP complex: values in Å; for Dmax, P(r) function: values in Å; for Rg smaller than that of the ERK2:HePTP resting-state complex: values in Å
[6] = biological target: T2, extracellular signal-regulated kinase 2 (ERK2), unphosphorylated (UniProt P63086 1-358); experiment: ITC; PTPSLKIM, PTPSL, STEP or PSChimera titrated into ERK2 in the cell; 25 °C; 10 mM Tris pH 7.5, 150 mM NaCl, 0.1 mM EDTA, 0.5 mM TCEP; one-site model; triplicate; conditions: both partners purified
T2 construct: ERK2 (extracellular signal-regulated kinase 2), unphosphorylated; also called MAPK; source: final SEC (Superdex 75 26/60)

p38α [7] = conditions: NMR; MAPK-binding domain; ref [18]; cited from earlier work
Source text: Although there are a few structural differences between ERK2 and p38α in this region (e.g., the activation loop is six residues longer in ERK2), nearly all residues that that we sh ... || The KIM domains of KIM-PTPs are intrinsically disordered in solution [14], [15]. Thus, they only adopt a single conformation when they bind their respective MAPKs. This is different from the MAPK-binding domains (MKBD) of MAPK phosphatases (MKP; dual specificity phosphatases; DUSPs), [26]. In MKPs, the KIM sequence is part of a stable, folded domain and thus adopts a single, ordered conformation in both the unbound and MAPK-bound states, [28]. […] Our ...

[8] = biological target: T2, extracellular signal-regulated kinase 2 …; experiment: ITC; DUSP16 MKBD and ERK2, which was the titrant is not stated; 25 °C; ITC buffer; one-site model; triplicate; conditions: both partners purified

HePTP (Homo sapiens), sequence (P35236 whole entry): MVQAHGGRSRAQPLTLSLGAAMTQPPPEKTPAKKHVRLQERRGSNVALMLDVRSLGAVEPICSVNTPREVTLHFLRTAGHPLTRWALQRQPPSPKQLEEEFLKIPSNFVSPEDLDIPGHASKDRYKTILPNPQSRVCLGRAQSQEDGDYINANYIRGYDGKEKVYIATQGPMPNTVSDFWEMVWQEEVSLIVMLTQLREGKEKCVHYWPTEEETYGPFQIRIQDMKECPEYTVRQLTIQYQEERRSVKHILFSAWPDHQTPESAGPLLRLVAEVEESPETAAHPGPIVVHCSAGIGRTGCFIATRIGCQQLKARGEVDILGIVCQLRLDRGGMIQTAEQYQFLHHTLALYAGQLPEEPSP
PTPSL (Homo sapiens), sequence (Q15256 22-657): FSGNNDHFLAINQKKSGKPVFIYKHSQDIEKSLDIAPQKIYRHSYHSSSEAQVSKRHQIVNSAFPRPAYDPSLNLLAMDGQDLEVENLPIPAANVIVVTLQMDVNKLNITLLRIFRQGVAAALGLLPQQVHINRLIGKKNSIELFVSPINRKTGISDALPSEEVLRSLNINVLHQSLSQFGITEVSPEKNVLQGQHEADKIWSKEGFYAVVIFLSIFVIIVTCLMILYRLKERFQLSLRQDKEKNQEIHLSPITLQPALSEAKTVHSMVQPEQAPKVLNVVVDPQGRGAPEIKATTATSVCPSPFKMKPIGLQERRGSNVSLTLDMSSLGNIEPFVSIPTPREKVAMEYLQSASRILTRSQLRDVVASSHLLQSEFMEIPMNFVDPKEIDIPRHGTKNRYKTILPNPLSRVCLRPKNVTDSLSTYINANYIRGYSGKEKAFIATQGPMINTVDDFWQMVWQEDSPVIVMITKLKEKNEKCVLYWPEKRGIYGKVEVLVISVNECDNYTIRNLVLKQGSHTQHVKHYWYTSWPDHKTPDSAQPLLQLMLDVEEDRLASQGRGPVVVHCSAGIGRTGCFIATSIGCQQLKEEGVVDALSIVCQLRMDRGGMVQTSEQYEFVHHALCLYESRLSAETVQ

ERK2 (from UniProt P63086)
Kd (HePTP (Homo sapiens)): 370 nM

p38α (from UniProt Q16539)
Kd (PTPSL (Homo sapiens)): 380 nM | Kd [1]: 900 nM

B1: STEP (residues 213-539, mouse) (domain or fragment, UniProt P54830 213-539, looked up)
chain: MGLQERRGSNVSLTLDMCTPGCNEEGFGYLVSPREESAHEYLLSASRVLRAEELHEKALDPFLLQAEFFEIPMNFVDPKEYDIPGLVRKNRYKTILPNPHSRVRLTSPDPEDPLSSYINANYIRGYSGEEKVYIATQGPIVSTVADFWRMVWQERTPIIVMITNIEEMNEKCTEYWPEEQVVHDGVEITVQKVIHTEDYRLRLISLRRGTEERSLKHYWFTSWPDQKTPDRAPPLLHLVREVEEAAQQEGPHCSPIIVHCSAGIGRTGCFIATSICCQQLRREGVVDILKTTCQLRQDRGGMIQTCEQYQFVHHAMSLYEKQLSLQS
notes: STEP (PTPN5, striatal enriched protein tyrosine phosphatase), mouse, residues 213-539 (KIM, KIS and catalytic domain); The results loosely call this construct 'full-length STEP'; the construct is residues 213-539; also called STEP_(213-539); PTPN5; source: final SEC
relative binding to ERK2 (in words) (ERK2 [2]; ERK2, ITC): tightest binding complex of all MAPK:KIM-PTP complexes tested; also recorded: more strongly than does HePTP | tighter binding to ERK2 than the STEPKIM peptide (ERK2 [2]; ERK2, ITC, versus STEPKIM): 11 times | lower Kd (tighter binding) than the next tightest complex, ERK2:PTPSL (ERK2 [2]; ERK2:STEP versus ERK2:PTPSL): ~3 times | tighter binding to ERK2 than to p38α (ERK2 [2]; ITC Kd, ERK2 versus p38α): ~12 times | tighter binding to ERK2 than to p38α (fold difference in affinity) (ERK2 [2]; ITC Kd, ERK2 versus p38α): 12 fold | affinity for ERK2 compared with p38α (in words) (ERK2 [2]; ITC, ERK2 versus p38α): higher binding affinity for ERK2 than for p38α; also recorded: bind more strongly to ERK2 | TΔS (ERK2 [2]; unphosphorylated ERK2, ITC, 25 °C, 10 mM Tris pH 7.5, 150 mM NaCl, 0.1 mM EDTA, 0.5 mM TCEP, average and standard deviation, triplicate): -19.7 ± 2.0 kcal/mol | Dmax, P(r) function (ERK2 [3]; ERK2:STEP resting-state complex, GNOM, 1.7 mg/ml sample): 95 Å | Rg, P(r) function calculation (ERK2 [3]; ERK2:STEP resting-state complex, GNOM, 1.7 mg/ml sample, Q-range 0.013–0.303 Å^−1): 31.1 Å | Dmax shorter than that of the ERK2:HePTP complex (ERK2 [3]; ERK2:STEP versus ERK2:HePTP): ~15 Å | Rg smaller than that of the ERK2:HePTP resting-state complex (ERK2 [3]; ERK2:STEP versus ERK2:HePTP): ~3.0 Å | Rg and Dmax compared with p38α:STEP complex (in words) (ERK2 [3]; ERK2:STEP versus p38α:STEP resting-state complex): highly similar to those determined for the p38α:STEP resting-state complex | χ^2, structure modeling (ERK2 [3]; ERK2:STEP, 24 GASBOR envelopes): 2.3±0.2 | shape of the complex with ERK2 (in words) (ERK2 [3]; resting-state complex, SAXS): compact; also recorded: more compact, globular complexes | Kd (p38α [4]): 577 ± 71 nM | NSD, structure modeling (ERK2 [5]): 1.31±0.05 | Kd [6]: 48 nM | dH [6]: -29.5 kcal/mol

B2: DUSP16 MAPK binding domain (residues 5-138, human) (domain or fragment, UniProt Q9BY84 5-138, looked up)
chain: MIGTQIVTERLVALLESGTEKVLLIDSRPFVEYNTSHILEAININCSKLMKRRLQQDKVLITELIQHSAKHKVDIDCSQKVVVYDQSSQDVASLSSDCFLTVLLGKLEKSFNSVHLLAGGFAEFSRCFPGLCEG
notes: also called DUSP16 MKBD; DUSP16 MKB domain; source: final SEC
weaker binding to ERK2 than to p38α (difference in Kd) (ERK2 [2]; ITC Kd, ERK2 versus p38α): ~1.4 fold | affinity for ERK2 compared with p38α (in words) (ERK2 [2]; ITC, ERK2 versus p38α): binds these MAPKs with similar affinities; also recorded: binds both MAPKs with similar affinities | Kd (p38α [4]; listed as DUSP16MKBD-KIM): 890 ± 230 nM | Kd (p38α [4]): ~900 nM | interaction with p38α by NMR (in words) (p38α [7]): interacts at multiple positions with p38α | Kd [8]: 1300 nM | dH [8]: -4.8 kcal/mol
